Data as given in US20070184522A1, “Cell death modulation via antagonists of Fasl and Fas activation” (University of Pittsburgh of the Commonwealth System of …, priority 2004, published 2007).

Columns and labels:
Hepa 1-6 cells = test: Fas-induced apoptosis in Hepa 1-6 cells (LDH activity assay); type: cell-based, mouse; conditions: for FasL induced apoptosis: serum deprived Hepa 1-6 cells, crosslinked mouse Fas ligand 1 μg/ml overnight, LDH
Experimental: For FIG. 4a, Jurkat cells (1.5×10^5) were overnight treated in triplicate with 5 ng/ml of crosslinked human Fas ligand with or without 5 μg/ml of recombinant AlphaMet or 1 μg/ml of the indicated polypeptides. Percent apoptosis was determined by Trypan Blue staining using a hemocytometer. The data are representative and were repeated at least four times. […] The 17 kDa fragment of cleaved Caspase 3 is visualized by this antibody. The blot was reprobed for β-actin as a loading control. For FIG. 4c, serum deprived Hepa 1-6 cells (3×10^5) were overnight treated with 1 μg/ml of crosslinked mouse Fas ligand with or without AlphaMet or the indicated polypeptide. Media were collected and centrifuged to pellet the dead cells. […] The data in FIG. 4c represents three independent experiments.
Apoptosis assay. Pre-washed Jurkat cells in RPMI 1640 medium containing 1% FBS were inoculated in 96-wells at a density of 10^5 cells per well. Apoptosis was induced by cross-linked human Fas-ligand (R&D Systems) at a concentration of 0.5 ng/ml or Anti-Fas (human, activating) clone CH11 (Upstate biotechnology) at a concentration of 500 ng /ml. Hepa 1-6 cells were overnight starved before induction of apoptosis. The apoptosis in Hepa 1-6 was induced by anti-mouse Fas antibody Jo2 (200 ng/ml) or human recombinant Fas-ligand. The extent of cell viability and apoptosis was determined by several methods such as Trypan Blue stain, flow cytometry, LDH assay, and Hoechst staining.

[1] = system: liver (hepatocyte apoptosis); test: Jo2 (Fas agonist) induced liver apoptosis in Balb/c mice; type: in vivo; conditions: for percentage of apoptotic cells by TUNEL staining: Balb/c mice liver, Jo2, AlphaMet 100 micrograms or YLGA polypeptides 300 micrograms per mouse; for enzymatic activity of caspase-3 in liver lysates: compared to Jo2 only group
Experimental: For FIG. 5a, Balb/c mice (10 per group) were injected with Jo2 (2.5 μg/g of mouse body weight) in the presence of AlphaMet or polypeptides as indicated, and analyzed for the extent of hepatocyte apoptosis and liver damage by immunohisological and biochemical techniques. The percentage of TUNEL positive was determined in multiple liver lobes of each liver in random fields counting at least 500 hepatocytes in a double-blind manner. Frame A: Normal mouse liver; Frame B: Jo2 treated mouse liver; Frame C: Jo2 plus AlphaMet treated mouse; Frame D: Jo2 plus YLGA 12 mer; Frame E: Jo2 and YLGA tetramer treatment; Frame F: Jo2 and YLGA mutated AlphaMet, respectively. These studies were repeated three times with identical outcome. FIG. 5b graphically presents the quantification of hepatocyte apoptosis TUNEL positive nuclei. The data were analyzed by One-way ANOVA and P<0.05 was considered significant. For FIG. 5c, an equal amount of livers were subjected to Caspase 3 activity assay using DEVD-AFC as a substrate and DEVD-CHO as an inhibitor, as recommended by the manufacturer. The data are the mean and SE and were repeated in three independent experiments. The data were analyzed by One-way ANOVA and P<0.05 was considered significant.
Animal studies. Male Balb/c mice weighing 30 grams were purchased from Jackson Laboratory and used according to an IACUC approved protocol. Induction of liver apoptosis and determination of Caspase 3 activity and histological evaluation were performed as described previously (Wang et al., 2002). Animals (10 per group) were anesthetized by isoflurane and injected with Jo2 (Pharmingen 2.5 microgram/gram body weight) with or without AlphaMet (100 micrograms recombinant AlphaMet or 300 micrograms of synthetic YLGA polypeptides) in a total of 100 micro liters of saline per mouse. Control groups (N=10 per group) consisted of saline only, Jo2 only, and Jo2 plus mutated AlphaMet or scrambled polypeptide. During the experiment which lasted approximately 6 hours, animals were closely monitored every 10 to 15 minutes and if they appeared to be moribund were immediately sacrificed and liver tissue and was removed for biochemical and histological studies.
It is well known in the literature that the liver is one of the most sensitive organs to Fas mediated apoptosis. Injection of the Fas agonist Jo2 antibody, which causes mice to experience Fas aggregation resulting in massive hepatocyte apoptosis, fulminant hepatic failure, and death within hours. This model was used to test if AlphaMet and the YLGA polypeptides could protect livers from Fas-induced apoptosis. Given the fact that AlphaMet blocked Fas trimerization and Fas micro-aggregation, and the fact that Fas oligomerization is essential in Fas signaling, it was reasonable to suspect that AlphaMet could block the Fas mediated apoptosis in vivo. Balb/c mice were used in these experiments. Groups of animals (n=10) were injected systemically with Jo2 ([…] of body weight) with or without purified recombinant AlphaMet, synthetic 12 mer YLGA polypeptide (HHIYLGATNYIY, SEQ ID NO:26), or their control counterparts (N-terminally truncated AlphaMet, YLGA mutated recombinant AlphaMet or scrambled 12 mer polypeptide) as described in the materials and methods. Mice were sacrificed within 6 hours or sooner if they were moribund and their livers were subjected to biochemical determination of Caspase-3 activity and histological analyses (i.e. TUNEL staining).

Row | Molecule | FasL induced apoptosis (Hepa 1-6 cells) | percentage of apoptotic cells by TUNEL staining [1] | enzymatic activity of caspase-3 in liver lysates ([1]; Balb/c mice) | apoptosis induced by the Fas agonist Jo2 (Hepa 1-6 cells; Hepa 1-6 cells) | resistance to Fas killing of stable cell lines expressing the protein (Hepa 1-6 cells; Hepa 1-6 stable lines versus control vector clones) | liver hemorrhage (gross and microscopic) ([1]; Balb/c mice, Jo2 injection, within 6 hours)
1 | HHIYLGATNYIY [12 mer] | significantly inhibited FasL induced apoptosis | 25% | significant reduction | – | – | –
2 | YLGA [YLGA 4 mer] | significantly inhibited FasL induced apoptosis | 40% | – | – | – | –
3 | alpha subunit of Met (AlphaMet), amino acid residues 1 to 306, His-tagged (receptor, mouse) MKAPTVLAPGILVLLLSLVQRSHGECKEALVKSEMNVNMKYQLPNFTAETPIQNVVLHGHHIYLGATNYIYVLNDKDLQKVSEFKTGPVLEHPDCLPCRDCSSKANSSGGVWKDNINMALLVDTYYDDQLISCGSVNRGTCQRHVLPPDNSADIQSEVHCMFSPEEESGQCPDCVVSALGAKVLLSEKDRFINFFVGNTINSSYPPGYSLHSISVRRLKETQDGFKFLTDQSYIDVLPEFLDSYPIKYIHAFESNHFIYFLTVQKETLDAQTFHTRIIRFCSVDSGLHSYMEMPLECILTEKRRKRHHHHHH | significantly inhibited FasL induced apoptosis | 18% | significant reduction | efficiently inhibited | dramatic resistance to Fas killing | little or no sign of hemorrhage
